The record followed here is publication PMC9715718.

Assay [1] concerns the target PqsE (purified, affinity tag removed) (Pseudomonas aeruginosa) (UniProt P20581). In words: SEC-MALS; Superdex 200 Increase column in SEC buffer, 40-150 µg of protein applied. On the technique in general: In gel filtration, larger molecules generally elute earlier.
For assay [2], the target named is RhlR-ATTO488 (Pseudomonas aeruginosa) (UniProt P54292). In words: MST; PqsE diluted 1:1 from 10 µM, RhlR-ATTO488 at 20 nM; 50 mM Tris pH 8.0, 300 mM NaCl, 5% glycerol, 50 µM mBTL, 0.05% Tween; 25 °C.

As to “RhlR (untagged, co-expressed with His6-PqsE) (from UniProt P54292) (natural protein)”, in assay [1], the stoichiometry N (RhlR per PqsE (2:2 complex)) worked out at 1.
In general, Kd refers to the free concentration of one partner at which half of the binding sites on the other are occupied at equilibrium, for simple one-to-one binding. The substance “PqsE (purified, affinity tag removed) (from UniProt P20581) (enzyme)” came in with a Kd in assay [2] of 146 nM.
